From patent US20250154272A1 (Astellas, published 2025)
Like-named read-outs stand apart in the source and are kept apart here.

B1: anti-CLDN4 (hKM3900)/anti-CD137 scFv bispecific antibody hKM3900_3-34-j6 (bispecific antibody, human IgG1, kappa, L234A L235A)
heavy: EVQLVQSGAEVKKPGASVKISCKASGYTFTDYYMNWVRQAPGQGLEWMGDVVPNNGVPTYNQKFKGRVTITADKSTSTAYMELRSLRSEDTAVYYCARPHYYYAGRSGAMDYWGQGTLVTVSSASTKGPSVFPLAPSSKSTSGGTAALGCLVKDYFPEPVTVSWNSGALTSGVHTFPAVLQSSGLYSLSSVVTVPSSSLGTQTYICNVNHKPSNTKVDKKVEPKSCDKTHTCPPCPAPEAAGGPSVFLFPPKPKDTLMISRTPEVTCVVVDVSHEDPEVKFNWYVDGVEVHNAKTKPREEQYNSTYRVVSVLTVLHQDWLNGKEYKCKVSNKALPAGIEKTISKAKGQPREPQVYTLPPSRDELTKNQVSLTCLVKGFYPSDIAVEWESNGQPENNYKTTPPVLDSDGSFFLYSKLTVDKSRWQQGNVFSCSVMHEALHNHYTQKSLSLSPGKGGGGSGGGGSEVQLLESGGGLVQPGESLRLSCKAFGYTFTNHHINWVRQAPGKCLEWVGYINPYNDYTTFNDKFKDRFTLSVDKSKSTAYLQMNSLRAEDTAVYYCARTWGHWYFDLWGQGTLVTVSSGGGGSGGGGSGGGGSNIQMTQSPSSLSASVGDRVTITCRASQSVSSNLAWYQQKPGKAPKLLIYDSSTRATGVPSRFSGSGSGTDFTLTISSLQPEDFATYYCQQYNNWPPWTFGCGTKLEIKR
light: DIQLTQSPSSLSASVGDRVTITCTASSTVSSTYLHWYQQKPGKAPKLLIYSTSNLASGVPSRFSGSGSGTDYTLTISSLQPEDFATYYCHQYHRSPPTFGQGTKLEIKRTVAAPSVFIFPPSDEQLKSGTASVVCLLNNFYPREAKVQWKVDNALQSGNSQESVTEQDSKDSTYSLSSTLTLSKADYEKHKVYACEVTHQGLSSPVTKSFNRGEC
notes: The heavy chain entry holds the hKM3900 heavy chain (L234A, L235A, P331G), the linker and the 3-34-j6 scFv
B2: anti-CLDN4 (hKM3900)/anti-CD137 scFv bispecific antibody hKM3900_L-3-34-j6 (bispecific antibody)
heavy: EVQLVQSGAEVKKPGASVKISCKASGYTFTDYYMNWVRQAPGQGLEWMGDVVPNNGVPTYNQKFKGRVTITADKSTSTAYMELRSLRSEDTAVYYCARPHYYYAGRSGAMDYWGQGTLVTVSS
light (part 1 of 2): B1 light
light (part 2 of 2): EVQLLESGGGLVQPGESLRLSCKAFGYTFTNHHINWVRQAPGKCLEWVGYINPYNDYTTFNDKFKDRFTLSVDKSKSTAYLQMNSLRAEDTAVYYCARTWGHWYFDLWGQGTLVTVSSGGGGSGGGGSGGGGSNIQMTQSPSSLSASVGDRVTITCRASQSVSSNLAWYQQKPGKAPKLLIYDSSTRATGVPSRFSGSGSGTDFTLTISSLQPEDFATYYCQQYNNWPPWTFGCGTKLEIKR
notes: scFv at the light chain C-terminus; not shown: human IgG1 heavy chain constant region; mutation positions by EU index; GS linker
B3: anti-CLDN4 (hKM3900)/anti-CD137 scFv bispecific antibody hKM3900_tA2-32LH (bispecific antibody, human IgG1, kappa, L234A L235A)
heavy: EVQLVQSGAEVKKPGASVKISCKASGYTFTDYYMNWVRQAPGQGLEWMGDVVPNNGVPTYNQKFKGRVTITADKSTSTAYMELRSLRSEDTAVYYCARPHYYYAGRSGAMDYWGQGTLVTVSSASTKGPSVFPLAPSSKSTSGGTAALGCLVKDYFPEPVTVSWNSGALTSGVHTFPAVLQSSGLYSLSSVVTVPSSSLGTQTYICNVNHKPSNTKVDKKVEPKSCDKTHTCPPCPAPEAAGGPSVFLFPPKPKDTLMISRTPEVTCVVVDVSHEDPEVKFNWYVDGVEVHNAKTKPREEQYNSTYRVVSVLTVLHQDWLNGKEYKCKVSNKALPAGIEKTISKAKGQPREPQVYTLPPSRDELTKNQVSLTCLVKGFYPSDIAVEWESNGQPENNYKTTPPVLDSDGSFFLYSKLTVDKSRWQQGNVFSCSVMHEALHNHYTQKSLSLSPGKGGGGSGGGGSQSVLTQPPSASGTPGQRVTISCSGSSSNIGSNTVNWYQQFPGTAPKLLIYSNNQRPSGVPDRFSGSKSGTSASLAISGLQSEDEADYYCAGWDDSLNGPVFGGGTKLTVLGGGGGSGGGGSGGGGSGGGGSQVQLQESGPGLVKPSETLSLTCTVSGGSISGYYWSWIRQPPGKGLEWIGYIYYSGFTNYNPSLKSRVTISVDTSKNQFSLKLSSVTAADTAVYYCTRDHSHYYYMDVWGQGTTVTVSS
light: B1 light
notes: The heavy chain entry holds the hKM3900 heavy chain (L234A, L235A, P331G), the linker and the tA2-32LH scFv
B4: 3D11 antibody (antibody, V domains shown)
VH: QVQLGQSGPEVKKPGASVKVSCKASGYSFISYGISWVRQAPGQGLEWMGWSSVYNGNTNYVQKFQGRVTMTTDTSASTAYMELRSLRSDDAAVYYCARDSYSSGWSYYYSGMDVWGQGTTVTVSS
VL: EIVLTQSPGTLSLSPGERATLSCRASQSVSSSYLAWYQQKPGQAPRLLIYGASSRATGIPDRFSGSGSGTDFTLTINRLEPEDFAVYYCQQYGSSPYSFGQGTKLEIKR
notes: Purified from the hybridoma supernatant of a VelocImmune mouse: human variable regions with mouse constant regions (chimeric antibody); also called 3D11 clone
B5: anti-CD137 antibody A2-32 (antibody, V domains shown)
VH: QVQLQESGPGLVKPSETLSLTCTVSGGSISGYYWSWIRQPPGKGLEWIGYIYYSGFTNYNPSLKSRVTISVDTSKNQFSLKLSSVTAADTAVYYCTRDHSHYYYMDVWGQGTTVTVSS
VL: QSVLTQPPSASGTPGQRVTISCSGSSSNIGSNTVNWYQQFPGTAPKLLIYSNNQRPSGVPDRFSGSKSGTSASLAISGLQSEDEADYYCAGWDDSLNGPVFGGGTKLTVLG
notes: Purified from a hybridoma derived from an AlivaMab mouse
B6: humanized anti-CLDN4 (hKM3900) antibody (antibody, V domains shown)
VH: B2 heavy
VL: DIQLTQSPSSLSASVGDRVTITCTASSTVSSTYLHWYQQKPGKAPKLLIYSTSNLASGVPSRFSGSGSGTDYTLTISSLQPEDFATYYCHQYHRSPPTFGQGTKLEIKR

Key:
[1] = target: T1, human CD137-His tag protein (R&D Systems, 9220-4B) (human, UniProt Q07011 24-186); experiment: ELISA, human CD137-His tag protein immobilized on the plate, anti-human IgG Fc-HRP, A450-A570
T1 construct: Bought protein; not shown: His tag of the bought protein

[2] = target: T2, human CLDN4 expressed on CHO-K1 cells (human, UniProt O14493 1-209); experiment: flow cytometry on human CLDN4 expressing CHO-K1, apparent KD
T2 construct: whole, on cells; also called human CLDN4 expressing CHO-K1
T2 sequence (looked up): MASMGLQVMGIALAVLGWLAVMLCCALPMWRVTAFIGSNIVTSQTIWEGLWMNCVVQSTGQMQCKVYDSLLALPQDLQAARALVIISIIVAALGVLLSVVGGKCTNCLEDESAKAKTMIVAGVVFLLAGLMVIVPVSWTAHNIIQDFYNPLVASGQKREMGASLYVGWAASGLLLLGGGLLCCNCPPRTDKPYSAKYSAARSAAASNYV

[3] = target: T1, human CD137-His tag protein (R&D …); experiment: ELISA, human CD137-His tag protein immobilized on the plate, anti-human IgG Fc-HRP, A450-A570; remark: listed apart in the source
[4] = target: T1, human CD137-His tag protein (R&D …); experiment: SPR, Biacore T200, antibody captured on Protein A chip, CD137 as analyte
[5] = target: T3, monkey CD137-His tag-3×FLAG tag fusion protein (monkey); experiment: as above
T3 construct: Residues 1-183 are the encoded extracellular region as stated; also called Monkey CD137-His-3 × FLAG
T3 chain: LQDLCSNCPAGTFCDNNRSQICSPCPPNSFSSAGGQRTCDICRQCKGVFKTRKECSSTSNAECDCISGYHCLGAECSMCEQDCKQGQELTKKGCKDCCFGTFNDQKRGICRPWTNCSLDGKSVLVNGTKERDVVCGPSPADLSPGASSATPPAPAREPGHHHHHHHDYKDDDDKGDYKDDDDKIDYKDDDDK

[6] = target: T1, human CD137-His tag protein (R&D …); experiment: ELISA, human CD137-His tag protein immobilized on the plate, anti-human IgG Fc-HRP, A450-A570; remark: listed apart in the source
[7] = target: T4, human CLDN4-Myc-DDK expressed on CHO-K1 cells (human, UniProt O14493 1-209); experiment: binding experiment on human CLDN4-Myc-DDK expressing CHO-K1 cells
T4 construct: whole, on cells; also called human CLDN4-Myc-DDK expressing CHO-K1 cells; not shown: Myc-DDK tag of the ORIGENE construct
T4 sequence (looked up): T2 sequence (looked up)

[8] = target: T5, human EpCAM-Myc-DDK expressed on CHO-K1 cells (human, UniProt P16422 24-314); experiment: flow cytometry of the clone supernatant on human EpCAM-Myc-DDK expressing CHO-K1 cells
T5 construct: whole, on cells; also called EpCAM expressing cells; not shown: Myc-DDK tag of the ORIGENE construct
T5 sequence (looked up): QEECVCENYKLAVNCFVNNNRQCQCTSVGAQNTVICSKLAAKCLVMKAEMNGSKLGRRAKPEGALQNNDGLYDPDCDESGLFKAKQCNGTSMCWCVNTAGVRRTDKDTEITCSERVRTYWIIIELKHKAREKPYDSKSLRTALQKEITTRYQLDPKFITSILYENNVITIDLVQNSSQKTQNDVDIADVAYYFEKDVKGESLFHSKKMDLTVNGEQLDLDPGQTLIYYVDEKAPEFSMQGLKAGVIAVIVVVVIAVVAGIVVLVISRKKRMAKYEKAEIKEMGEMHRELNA

[9] = target: T6, human CD137-human Fc fusion protein (human, UniProt Q07011 24-186); experiment: ELISA of the purified antibody on coated plates
T6 construct: not shown: human IgG1 Fc of the pFUSE-hIgG1-Fc1 vector (InvivoGen, pfuse-hg1fc1)

[10] = target: T7, monkey CD137-human Fc fusion protein (monkey; human, UniProt Q07011 24-186); experiment: ELISA of the purified antibody on coated plates
T7 construct: not shown: human IgG1 Fc of the pFUSE-hIgG1-Fc1 vector (InvivoGen, pfuse-hg1fc1)
T7 chain: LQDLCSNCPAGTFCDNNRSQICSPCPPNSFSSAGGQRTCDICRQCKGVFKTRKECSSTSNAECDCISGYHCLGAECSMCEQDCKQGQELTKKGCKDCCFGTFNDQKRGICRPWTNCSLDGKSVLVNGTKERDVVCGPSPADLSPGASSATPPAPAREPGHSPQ

Binder	EC50 (read off the curve) [1] [ng/mL]	Kd [2] [nM]	EC50 (read off the curve) [3] [ng/mL]	Kd [4] [nM]	koff [4] [s⁻¹]	kon [4] [M⁻¹ s⁻¹]	Kd [5] [nM]	koff [5] [s⁻¹]	kon [5] [M⁻¹ s⁻¹]	EC50 (read off the curve) [6] [ng/mL]	also measured
B1	~10	11.2	~6	5.81	0.00135	232000	10.7	0.00191	179000	~8	
B2			~4								
B3	~10	10.8		5.84	0.00219	374000	6.68	0.00192	288000	~8	
B4											binding result [7]: binds; binding result [8]: no binding
B5											binding result [9]: binds; binding result [10]: binds
B6		10.8									binding result [6]: no binding (tested: 1000 ng/mL)
